# T1: rat VEGFR1 (soluble antigen of the KinExA and SPR affinity assays) (rat, UniProt P53767 23-758, limits assumed)
# T1 sequence (looked up): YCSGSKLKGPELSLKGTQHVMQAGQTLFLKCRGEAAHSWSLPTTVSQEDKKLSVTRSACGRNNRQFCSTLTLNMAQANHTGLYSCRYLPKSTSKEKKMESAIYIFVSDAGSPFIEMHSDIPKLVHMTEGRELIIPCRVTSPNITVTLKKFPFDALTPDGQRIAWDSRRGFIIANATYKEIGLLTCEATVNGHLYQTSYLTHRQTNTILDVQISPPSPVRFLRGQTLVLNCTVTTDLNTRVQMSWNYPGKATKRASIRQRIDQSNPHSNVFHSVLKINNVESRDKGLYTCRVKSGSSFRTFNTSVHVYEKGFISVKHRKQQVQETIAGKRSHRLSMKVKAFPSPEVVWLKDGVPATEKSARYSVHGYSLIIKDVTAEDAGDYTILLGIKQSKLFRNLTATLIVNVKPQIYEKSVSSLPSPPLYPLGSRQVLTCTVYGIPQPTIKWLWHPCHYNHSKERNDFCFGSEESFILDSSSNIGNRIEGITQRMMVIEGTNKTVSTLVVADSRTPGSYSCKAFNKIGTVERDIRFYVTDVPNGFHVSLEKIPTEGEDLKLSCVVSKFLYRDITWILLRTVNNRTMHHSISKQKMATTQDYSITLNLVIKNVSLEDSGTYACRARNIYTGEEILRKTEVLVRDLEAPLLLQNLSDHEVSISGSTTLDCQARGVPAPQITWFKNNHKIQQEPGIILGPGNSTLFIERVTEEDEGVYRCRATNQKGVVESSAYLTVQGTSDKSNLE
# Assays:
# [1] = biological target: T2, Recombinant human VEGFR1-Fc (R&D Systems) (human, UniProt P17948 27-687, limits assumed); experiment: biochemical ligand blocking assay; ligand and receptor form not given
# T2 construct: bought; not shown: Fc part of the bought fusion, not described
# T2 sequence (P17948 27-687 limits assumed): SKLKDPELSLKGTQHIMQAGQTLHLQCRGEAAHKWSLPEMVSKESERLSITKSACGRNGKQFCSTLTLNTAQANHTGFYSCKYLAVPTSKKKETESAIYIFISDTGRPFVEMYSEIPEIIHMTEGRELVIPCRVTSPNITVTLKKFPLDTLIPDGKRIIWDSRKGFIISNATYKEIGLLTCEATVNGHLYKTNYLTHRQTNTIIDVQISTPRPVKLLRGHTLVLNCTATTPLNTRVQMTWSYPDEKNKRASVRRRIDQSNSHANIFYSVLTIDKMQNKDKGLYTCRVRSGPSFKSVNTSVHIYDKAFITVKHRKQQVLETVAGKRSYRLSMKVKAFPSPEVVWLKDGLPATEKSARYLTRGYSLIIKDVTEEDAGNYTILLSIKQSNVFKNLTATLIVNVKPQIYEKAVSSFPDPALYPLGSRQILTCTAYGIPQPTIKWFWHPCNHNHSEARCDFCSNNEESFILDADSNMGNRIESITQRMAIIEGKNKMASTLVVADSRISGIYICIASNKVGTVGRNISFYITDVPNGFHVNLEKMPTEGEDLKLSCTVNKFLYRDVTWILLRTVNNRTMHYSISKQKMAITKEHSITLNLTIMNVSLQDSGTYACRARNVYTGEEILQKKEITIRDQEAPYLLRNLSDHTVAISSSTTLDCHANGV
# Outline: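 In a biochemical electro-chemiluminescence ligand blocking assay, Protein A/G-coated MSD plates captured recombinant VEGFR1-Fc, which was pre-incubated with half-log dilutions of each antibody for 30 minutes. Biotinylated ligand was added next and detected with Sulfo-tagged streptavidin on an MSD imager. The readings were used to calculate IC50.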
# [2] = biological target: human VEGFR1 (soluble antigen of the KinExA and SPR affinity assays) (human, UniProt P17948 27-758, limits assumed); experiment: KinExA, solution
# Chain of human VEGFR1 (soluble antigen of the KinExA and SPR affinity assays) (P17948 27-758 limits assumed): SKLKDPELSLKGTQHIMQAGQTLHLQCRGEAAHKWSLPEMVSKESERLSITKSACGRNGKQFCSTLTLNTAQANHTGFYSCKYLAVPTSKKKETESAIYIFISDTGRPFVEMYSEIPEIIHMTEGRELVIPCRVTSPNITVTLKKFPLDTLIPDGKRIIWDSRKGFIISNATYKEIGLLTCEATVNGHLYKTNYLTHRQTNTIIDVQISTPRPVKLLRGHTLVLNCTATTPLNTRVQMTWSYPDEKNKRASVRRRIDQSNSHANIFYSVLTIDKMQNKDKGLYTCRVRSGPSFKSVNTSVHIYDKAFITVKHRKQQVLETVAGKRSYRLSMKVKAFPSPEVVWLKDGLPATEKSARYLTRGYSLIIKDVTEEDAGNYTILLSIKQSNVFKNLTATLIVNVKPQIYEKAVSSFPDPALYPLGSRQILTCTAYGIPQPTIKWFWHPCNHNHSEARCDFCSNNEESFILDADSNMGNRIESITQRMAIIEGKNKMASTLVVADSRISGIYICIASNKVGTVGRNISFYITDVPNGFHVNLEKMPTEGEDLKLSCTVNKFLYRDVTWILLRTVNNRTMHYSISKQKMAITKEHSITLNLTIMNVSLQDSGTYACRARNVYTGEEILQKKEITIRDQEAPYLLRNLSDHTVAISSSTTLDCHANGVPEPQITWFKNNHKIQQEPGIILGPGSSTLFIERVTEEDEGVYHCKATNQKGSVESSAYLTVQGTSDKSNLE
# Description: (§1) Kinetic exclusion assay (KEA; KinExA) was used to analyze the binding of anti-VEGFR1 antibodies to human, mouse and cynomolgus monkeys VEGFR1. KEA is a fluorescence-based solution method, and it is described in detail in the literature (Darling and Brault, 2004). To measure the affinity of an interaction, a series of solutions with a fixed concentration of one interactant (A) and varying concentrations of another interactant (B) are prepared and allowed to reach equilibrium. After equilibration, the concentration of free A is determined by flowing the equilibrated mixture through a column packed with beads modified with reactant B. Free A binds to the beads and is then detected using a fluorescently labeled polyclonal antibody.
# (§2) Briefly, fixed concentrations (300 pM, 60 pM, 12 pM, 2.4 or 0.5 pM) of Ab were used to prepare a serial dilution of the antigen (2 nM to 0.52 pM, or 800 pM to 5.37 fM). The complex titrations were incubated at RT to reach binding equilibrium for at least 2 days. After incubation, the samples were run on the KinExA3200 or KinExA4000 instrument to assess free antibody in the reaction. During these studies some of the data were rejected because the experiments failed or failed the acceptance criteria. For mouse VEGFR1 the 60 and 300 pM concentrations were rejected due to high titrant related NSB. The dissociation equilibrium constant, (KD), was determined using the n-curve analysis feature of the KinExA Pro software. This program uses nonlinear least-square regression analysis of the globally fitted data to a 1:1 binding model. (CI=confidence interval).
# [3] = biological target: T1, rat VEGFR1 (soluble antigen of the …); experiment: KinExA, solution
# Description: as §1, §2
Binder,IC50 [1] [nM],Kd [2] [nM],Kd [3] [nM]
"VGFB54 (antibody, human IgG1, lambda, L234A L235A, V domains shown, human IgG1 (L234A/L235A/D265S), lambda, 2H:2L; from OmniChicken) VH: EVQLLESGGGSVQPGGSLRLSCTASGFNFEDYGMNWVRQAPGKGLDWVSSINRNGDISTYHVDSVKGRFTISRDNSKNTLYLQMNSLRAEDTAIYYCTKNHDYHGMDVWGQGTTVTVSS VL: not shown",0.0894,,
"VGFB82 (antibody, human IgG1, lambda, L234A L235A, V domains shown, human IgG1 (L234A/L235A/D265S)) VH: EVQLLESGGGLVQPGGSLRLSCEASGFDFSTYAMNWVRQAPGKGLEWVATINSEGTITSHAPAVKGRFTISRDNSKNTAYVQMNSLRAEDSAVYYCSSTTGTTHGMDVWGRGTTVTVSS VL: not shown",,0.00046,0.224
